Results reported in publication PMC9117659, “Phase transition and remodeling complex assembly are important for SS18-SSX oncogenic activity in synovial sarcomas” (Nature Communications, 2022).

Columns and labels:
Conditions in all cases: both partners purified
SNF11^(38-169) = target: T1, SNF11^(38-169) (S. cerevisiae, UniProt P38956 38-169); experiment: AUC; sedimentation velocity, 4 °C, interference detection, 50 mM MES pH 6.0, 50 mM NaCl, 1 mM EDTA, 1 mM DTT; SEDFIT
T1 construct: Cloned into one of the two multiple cloning sites of pETDuet-1
T1 sequence (looked up): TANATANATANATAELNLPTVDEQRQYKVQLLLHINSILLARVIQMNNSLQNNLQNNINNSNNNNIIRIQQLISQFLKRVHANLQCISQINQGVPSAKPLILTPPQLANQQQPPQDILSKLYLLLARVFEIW

[1] = target: T2, Human SS18 (residues 1-387), purified recombinant (human, UniProt Q15532-2 1-387); experiment: SEC; purified human proteins or fragments run together on a size-exclusion column; coelution, fractions on SDS-PAGE
T2 construct: The MBP-his6 vector is told for the proteins studied in phase separation; also called SS18^(1-387); SS18-WT; source: E. coli BL21(DE3) Codon Plus, purified (Ni-NTA, SEC)

SS18^(14-101) = target: T3, SS18^(14-101) (human, UniProt Q15532 14-101); experiment: AUC; sedimentation velocity, 4 °C, interference detection, 50 mM MES pH 6.0, 50 mM NaCl, 1 mM EDTA, 1 mM DTT; SEDFIT
T3 construct: SS18, human, residues 14-101, includes the SNH domain; also called SS18 fragment aa 14-101 (includes the SNH domain); source: E. coli BL21(DE3) Codon Plus, purified
T3 sequence (Q15532 14-101): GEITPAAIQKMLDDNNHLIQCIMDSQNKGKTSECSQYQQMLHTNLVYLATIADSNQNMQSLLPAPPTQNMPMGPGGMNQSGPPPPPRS

T2 sequence (Q15532 other isoform, or with tags, fused parts or gaps): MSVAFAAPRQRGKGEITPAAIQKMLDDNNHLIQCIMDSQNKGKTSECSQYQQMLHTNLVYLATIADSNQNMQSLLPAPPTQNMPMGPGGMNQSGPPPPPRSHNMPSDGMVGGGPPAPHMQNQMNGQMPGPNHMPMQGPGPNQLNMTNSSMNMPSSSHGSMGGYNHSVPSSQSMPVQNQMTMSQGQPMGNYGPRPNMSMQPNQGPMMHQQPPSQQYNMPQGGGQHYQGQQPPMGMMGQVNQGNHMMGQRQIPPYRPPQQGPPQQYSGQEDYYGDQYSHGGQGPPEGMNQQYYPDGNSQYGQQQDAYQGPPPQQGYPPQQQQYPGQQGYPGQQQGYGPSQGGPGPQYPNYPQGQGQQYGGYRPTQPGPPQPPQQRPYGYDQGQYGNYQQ

B1: SNF2^(248-308), 60-residue fragment including the QLQ domain of SNF2 (domain or fragment, S. cerevisiae, UniProt P22082 248-308, looked up)
chain: FTAEQSELLKAQITSLKCLVNRKPIPFEFQAVIQKSINHPPDFKRMLLSLSEFARRRQPTD
notes: Cloned into one of the two multiple cloning sites of pETDuet-1
stoichiometry N (SNF11^(38-169)): 1

B2: BRG1^(1-282), N-terminal 282-residue fragment of BRG1 (domain or fragment, human, UniProt P51532 1-282, looked up)
chain: MSTPDPPLGGTPRPGPSPGPGPSPGAMLGPSPGPSPGSAHSMMGPSPGPPSAGHPIPTQGPGGYPQDNMHQMHKPMESMHEKGMSDDPRYNQMKGMGMRSGGHAGMGPPPSPMDQHSQGYPSPLGGSEHASSPVPASGPSSGPQMSSGPGGAPLDGADPQALGQQNRGPTPFNQNQLHQLRAQIMAYKMLARGQPLPDHLQMAVQGKRPMPGMQQQMPTLPPPSVSATGPGPGPGPGPGPGPGPAPPNYSRPHGMGGPNMPPPGPSGVPPGMPGQPPGGPPK
notes: Cloned into a modified pET32a (Trx-his6, N-terminal); the methods describe PreScission cleavage of the Trx-his6 tag in general; Cy3-labelled only for imaging; source: E. coli BL21(DE3) Codon Plus, purified (Ni-NTA, SEC, ion exchange); not shown: Trx, N-terminal, cleaved; His6, N-terminal, cleaved
binding result [1]: binds

B3: BRG1^(172-213) (domain or fragment, human, UniProt P51532 172-213, looked up)
chain: FNQNQLHQLRAQIMAYKMLARGQPLPDHLQMAVQGKRPMPGM
notes: In the crystal it stood fused to SS18^(14-101) on one chain; source: E. coli BL21(DE3) Codon Plus, purified
stoichiometry N (SS18^(14-101)): 1
